The results in this text go back to patent publication US20240075068A1 (GADETA B V, published 2024).

Experiment [1] deals with Endothelial protein C receptor (EPCR) peptide on (human). In words: TEG library γ-random/δ-random, 16 h with Luc-Tom HT-29 (cells that express the antigen), E:T 1:3; CD69/CD107a sort, NGS read ratio; Fig. 9; full-length, on cells. The following applies: chains Vgamma:Vdelta.
For experiment [2], the target named is T1, endothelial protein C receptor (EPCR) on HT-29 cells (UniProt Q9UNN8 18-238, limits assumed).
T1 construct: whole, on cells; The description says 'preferably human EPCR'; HT-29 is a human cell line; also called recognised target; target antigen
T1 sequence (looked up): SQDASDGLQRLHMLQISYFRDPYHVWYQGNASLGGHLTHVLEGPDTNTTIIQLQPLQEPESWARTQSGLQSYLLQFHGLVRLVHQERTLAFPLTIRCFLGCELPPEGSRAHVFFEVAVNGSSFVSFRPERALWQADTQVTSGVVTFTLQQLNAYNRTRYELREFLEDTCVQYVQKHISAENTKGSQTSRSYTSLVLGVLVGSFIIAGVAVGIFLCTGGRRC
In words: flow cytometry on HT-29 cells (wild-type, EPCR-enhanced, EPCR KO), streptavidin-A647 detection. (In general: A flow cytometer gives signals particle by particle.)
Protocol: Target cells mock treated with PBS served as control binding (FIG. 15A). […] Mock treated and unstained target cells served as controls. Data was analysed with flowjo and shown as histograms.
(§1) Trypsinized HT-29 target cells seeded in 96-well round bottom-plates were incubated for 2 hours at 37° C. to recover cell surface expression molecules. […] Unbound sTCR/TCR-CD3 bispecific engager was washed. Bound sTCR or TCR-CD3 bispecific engager was stained respectively with streptavidin-labelled A647 (BioLegend, CA, USA) or anti-His-APC (BioLegend). Staining was determined with FACS flow cytometry was results were analyzed with Flowjo software.
The soluble γδTCRs were used to assess specific binding to HT-29 cells, HT-29 knocked out (KO) for the expressed target (EPCR) or HT-29 cells with ectopic target expression. Bound soluble γδTCRs were targeted with a secondary streptavidin A647-labelled antibody that could be detected with FACS flow cytometry.

Experiment [3] addresses T1, endothelial protein C receptor (EPCR) …. Briefly: flow cytometry on HT-29 cells (wild-type, EPCR ectopic, EPCR KO), anti-His-APC detection.
Protocol: PBS-mock treated (secondary only) or unstained target cells served as controls. Data was analysed with flowjo and shown as histograms.
as §1
The γδTCR-CD3 bispecific engagers were used in binding experiments utilizing HT-29 cells, HT-29 with the target antigen (EPCR) knocked out (KO) or with ectopic expression of the target. Bound γδTCR-CD3 bispecific engagers were targeted with an anti-His-APC-labelled secondary antibody that could be detected with FACS flow cytometry.

B1: E57 G7/D5 (protein)
chain 1: SSNLEGRTKSVIRQTGSSAEITCDLAEGSTGYIHWYLHQEGKAPQRLLYYDSYTSSVVLESGISPGKYDTYGSTRKNLRMILRNLIENDSGVYYCATWEAFYYKKLFGSGTTLVVT
chain 2: DQQVKQNSPSLSVQEGRISILNCDYTNSMFDYFLWYKKYPAEGPTFLISISSIKDKNEDGRFTVFLNKSAKHLSLHIVPSQPGDSAVYFCAASSPIKGYTGSDKLIFGKGTRVTVEP
With B1, in experiment [1], the enrichment of CD69+/CD107a+ over CD69-/CD107a- reads was greater than 170%.

B2: sE57 G2/D1 soluble γδTCR (affinity decreased variant, without cysteine) (TCR, V domains shown)
V domain 1: SSNLEGRTKSVIRQTGSSAEITCDLAEGSTGYIHWYLHQEGKAPQRLLYYDSYTSSVVLESGISPGKYDTYGSTRKNLRMILRNLIENDSGVYYCATWDGYKKLFGSGTTLVVTD
V domain 2: DQQVKQNSPSLSVQEGRISILNCDYTNSMFDYFLWYKKYPAEGPTFLISISSIKDKNEDGRFTVFLNKSAKHLSLHIVPSQPGDSAVYFCAASSPIRGYTSGSDKLIFGKGTRVTVEP
modifications: biotinylated via Avi-tag (BirA co-transfection in the presence of biotin)
notes: also called G2/D1 variant
Take B2: the binding result in experiment [2] is listed as “no binding (tested: 10 µg)”.

B3: soluble γδTCR-CD3 bispecific engager comprising the G2/D1 variant regions (TCR, V domains shown)
V domain 1: B2 V domain 1
V domain 2: B2 V domain 2
notes: This is a TCR-scFv fusion; also called G2/D1 γδTCR-CD3 bispecific engager; G2D1 γδTCR-CD3 bispecific engager
For B3, in experiment [3], the binding result is listed as “no binding (tested: 5 µg)”.
